Literature values, collected in article PMC12287344.

Target: caspase-1 (Homo sapiens) (UniProt P29466)

Kd: 110 µM
Substance: caspase-1 (from UniProt P29466)
